The source of these data is patent US8993714B2, “Streptavidin macromolecular adaptor and complexes thereof” (Imiplex LLC, priority 2007, dated 2015).

Series [1] in a line: Binding of purified MJ0577 to nucleotide mimicking resin Cibacron Blue. The note with it: 25 mM sodium phosphate buffer pH 7.6. Here is the method:
(§1) The structure of MJ0577 was determined in the context of a structural genomics project aimed at elucidating protein function through 3D structural studies. […] Because the nucleotide was not added to buffers used during purification and crystallization, the authors concluded that ATP was scavenged from the growth media. […] Because the purification protocol developed here includes heating and dialysis at pH 5.2 steps, we believed that it was possible that the protein would be isolated as the ATP-free form. To test this hypothesis, the affinity of purified MJ0577 for the nucleotide mimicking resin, Cibacron Blue, was tested following the procedure successfully applied in the purification of an MJ0577 structural relative, E. coli YnaF (Saveanu et al. 2002). […] MJ0577 was dialyzed overnight against 8 M guanidinium HCl (GuHCl) 0.2 M TRIS pH 8.2, 5 mM DTT, then dialyzed overnight against 8 M urea, and finally equilibrated to non-denaturing conditions by dialysis against 25 mM sodium phosphate buffer pH 7.6. In a separate experiment, MJ0577 was dialyzed overnight against 2 M GuHCl in 25 mM L-histidine pH 5.6, 2 M GuHCl in 25 mM CHES pH 9.8, and 2 M GuHCl in 25 mM sodium phosphate buffer pH 7.8, 20% DMSO. Half of each sample was then heated at 40° C. for one hour. […] Such results can enable the ready establishment of proper conditions for a biotin-ATP substituted SAMA.

The conditions of series [2]: Zarembinski et al. 1998; cited from earlier work.
The nature of series [3]: Binding of MJ0577 to ATP immobilized on a resin via the g-phosphate, analysis by PAGE. The note with it: after dialysis against GuHCl/urea. Here is the method:
as §1

B1: MJ0577: protein dimer isolated from the thermostable bacterium Methanococcus jannaschii, 162 residues, SEQ ID NO: 11; SAMA template (protein, listed as Methanococcus jannaschii)
chain: MSVMYKKILYPTDFSETAEIALKHVKAFKTLKAEEVILLHVIDEREIKKRDIFSLLLGVAGLNKSVEEFENELKNKLTEEAKNKMENIKKELEDVGFKVKDIIVVGIPHEEIVKIAEDEGVDIIIMGSHGKTNLKEILLGSVTENVIKKSNKPVLVVKRKNS
modifications: dimer
notes: SAMA template
For the molecule B1, the “binding to Cibacron Blue resin” value in series [1] is given as “No binding was observed”. Besides, in series [2], the “thermostable to” value is “at least 80 °C”. Further, the “interaction with ATP resin” value in series [3] is “essentially no interaction”.
